# T1: AS25 (synthetic construct (Homo sapiens …))
# T1 chain: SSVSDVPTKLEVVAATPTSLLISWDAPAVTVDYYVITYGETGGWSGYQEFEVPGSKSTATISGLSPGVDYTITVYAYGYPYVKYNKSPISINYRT
# B1: synthetic L-Bcr-Abl SH2 domain (domain or fragment)
# chain: KKKKKSGVNSLEKHSWYHGPVSRNAAEYLLSSGINGSFLVRESESSPGQRSISLRYEGRVYHYRINTASDGKLYVSSESRFNTLAELVHHHSTVADGLITTLHYPAPKRNK
# modifications: biotinylated (position of the biotin not stated in the text shown)
# Experiments:
# AS25 = target: T1, AS25; experiment: ITC
# L-pY peptide = L-pY peptide (phosphotyrosine (pY) at the fourth residue; 5-carboxyfluorescein on the N-terminus; C-terminal amide); experiment: ITC
binder,measurement,setting,value
B1,Kd,AS25,0.184 µM
same,Kd,L-pY peptide,4.89 µM

# Reference: paper PMC9347351 (2022)
